According to paper PMC5374107, “Structure-Guided Identification of a Family of Dual Receptor-Binding PfEMP1 that Is Associated with Cerebral Malaria” (Cell Host & Microbe, 2017):

B1: PF11_0521 head structure (NTS-DBLα1.7-CIDRα1.4-DBLβ3) (domain or fragment)
chain: MGNAIPATPDPIFINESYKSARNVLENVARLIKAKATKDVKRHRNVLKGNLRNAKFYHPFSKERPYYKSACDLDYRFHSNIWSGDNTYRHPCAGRNRNRFSYEGEAECRISRITGNKTEHGACAPYRRRHLCDYIFHQVNDNYIKTSDDLLGNLLVTAKYEGESIVNSYANSGMFNVCTALARSFADIGDIIRGKDLYLGNGDYKEKVSNNLRAIFNKIYENLNDPKLKKHYQKDAPNYYKLRDDWWNANREDVWKALTCNAPYEAQYFIKPSDKEHSFSSEYCGHYKNGDPLTNLDYVPQFLRWFEEWAEEFCRIKKIKLENVKNACRDEKKRKYCSLNGFDCTQTIWKKKVFGRGNDCTNCSFKCFPYEIWLGNQREAFRKQKEKYAKEIEAYVTNRGIPKSSINNGYYKDFYNKLKEKTYNTVDEFINLLNEGRYCKKQKPEEENIDFIKTGEKGTFYRSDYCQVCPDCGVDCSSGTCIEKKDDINCGKKINYEPPHGVKPIDIIVLYSGNEEGEITKRLSEFCTDSSNNKGKNYEQWKCYYKNGDDNKCKMVKNSGNNITEEKIISFDEFFYVWVRKLLIDSIKWENELNNCIDNTSTHCNKECNKNCECFDKWVKKKEDEWKNVKNVFENKNGTSHNYYNKLNGLFKGFFFEVMDKLNKDETKWNKLIESLRTKIDSSKENIGTGNTQDTIKVLLDHLKETATICKDNNTNEACETSRNRKTNPCAKPHGKKLATVKQIAQYYKRKAYIQLNERGSRSALKGDASQGQYDRGGKADDFKTKLCEINEKHSNARSNSLNPCNGKDNNKVRFNVGTPWQSGEKIATATDVYLPPRRQHFCTSNLEYLINGGHQAILNVKNGKINHSFLGDVLLAAKYQAQHTMKDYKSKNDKEGICRAIRYSFADIGDIIKGTDLWDKDGGEIKTQNHLVTIFDKIKAQLPKDIKGKYTGTKHLELRKDWWEANRDQVWKAMQCGNDNPCSGESDHTPLHDYIPQRLRWMTEWAEWYCKEQSRLYDKLKVCEECMRKGESCTKGSGECATCKEACEEYNKEIKKWEQQWDAISYKYLMLYAKARITAINGGPGYYNTEVQEEDKPVVDFLYNLYLQNGGKKGPPPDTHRVKALIARVKRDAARNRVKRADGSSATRVTATTTITPYSTAAGYIHQEAHIGDCQKQTQFCKNKNGSDVSDTEADPTYAFRDKPHDHDTACKC
B2: ICAM-1D1D5-Fc::PF11_0521 head structure complex (complex)
chain 1: QTSVSPSKVILPRGGSVLVTCSTSCDQPKLLGIETPLPKKELLLPGNNRKVYELSNVQEDSQPMCYSNCPDGQSTAKTFLTVYWTPERVELAPLPSWQPVGKNLTLRCQVEGGAPRANLTVVLLRGEKELKREPAVGEPAEVTTTVLVRRDHHGANFSCRTELDLRPQGLELFENTSAPYQLQTFVLPATPPQLVSPRVLEVDTQGTVVCSLDGLFPVSEAQVHLALGDQRLNPTVTYGNDSFSAKASVSVTAEDEGTQRLTCAVILGNQSQETLQTVTIYSFPAPNVILTKPEVSEGTEVTVKCEAHPRAKVTLNGVPAQPLGPRAQLLLKATPEDNGRSFSCSATLEVAGQLIHKNQTRELRVLYGPRLDERDCPGNWTWPENSQQTPMCQAWGNPLPELKCLKDGTFPLPIGESVTVTRDLEGTYLCRARSTQGEVTRKVTVNVLSPRYE
chain 2: B1 chain

Columns and labels:
Conditions in all cases: both partners purified
[1] = target: T1, ICAM-1D1D5-Fc (human); test: SPR; Biacore T-200; ICAM-1D1D5 Fc immobilized to 1,400 RU on a CM5 chip pre-coupled to Protein A; head structures injected, two-fold dilutions 4 nM to 500 nM, 40 µL/min, 240 s association, 600 s dissociation; 10 mM HEPES pH 8.0, 300 mM NaCl, 0.05% Tween-20; one-site kinetic model
T1 construct: intercellular adhesion molecule 1 (ICAM-1), domains D1 to D5; captured on protein A by its Fc; also called ICAMD1D5; ICAM-1-Fc; source: HEK cells, recombinant (Bengtsson et al., 2013a)

[2] = target: T2, Recombinant His-tagged EPCR (human, UniProt Q9UNN8 18-238, biotin (biotinylated by BirA)); test: SPR; Biacore T-200; biotinylated EPCR immobilized to 650 RU on a CAP chip (Biotin Capture Kit); head structures injected, two-fold dilutions 500 nM to 4 nM, 30 µL/min, 240 s association, 720 s dissociation; 10 mM HEPES pH 7.4, 300 mM NaCl, 0.05% Tween-20, 2 mg/ml ssDNA; one-site kinetic model
T2 construct: endothelial protein C receptor (EPCR); also called endothelial protein C receptor; source: S2 cells, purified and biotinylated (Lau et al., 2015)
T2 sequence: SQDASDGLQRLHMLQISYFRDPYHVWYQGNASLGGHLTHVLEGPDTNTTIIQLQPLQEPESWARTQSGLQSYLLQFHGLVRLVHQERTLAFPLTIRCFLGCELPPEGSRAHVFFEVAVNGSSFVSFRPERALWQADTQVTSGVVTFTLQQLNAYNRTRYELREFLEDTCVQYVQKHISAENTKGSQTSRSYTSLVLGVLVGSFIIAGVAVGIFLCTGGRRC

[3] = target: T2, Recombinant His-tagged EPCR; test: SPR; Biacore T-200; dual binding: ICAM-1D1D5 Fc immobilized (1,800, 2,100 or 1,500 RU) on Protein A CM5 chip, head structure injected at 250 nM for 240 s, then EPCR injected, two-fold dilutions 250 nM to 16 nM, 30 µL/min, 240 s association, 720 s dissociation; 10 mM HEPES pH 8.0, 300 mM NaCl, 0.05% Tween-20; one-site kinetic model

| Binder | Kd [1] | koff [1] | kon [1] | Kd [2] | koff [2] | kon [2] | Kd [3] | koff [3] | kon [3] |
| --- | --- | --- | --- | --- | --- | --- | --- | --- | --- |
| B1 | 2.33 nM | 5.41e-05 s⁻¹ | 23200 M⁻¹ s⁻¹ | 1.18 nM | 4.5e-05 s⁻¹ | 38100 M⁻¹ s⁻¹ |  |  |  |
| B2 |  |  |  |  |  |  | 11.4 nM | 0.000195 s⁻¹ | 17200 M⁻¹ s⁻¹ |
